Results: the supplement of paper PMC9170038

Tested on: MS2 coat protein
Test: apparent KD of MS2 coat protein; designed switch direction (-1 OFF switch, 1 ON switch): -1; higher = weaker reporter binding
Summary of the method: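 Stalled E. coli RNA polymerase transcribed designed RNA switches on Illumina chips, which were then titrated with SNAP-549-labelled MS2 coat protein, doubling from 0.7 or 1.5 nM to 3 µM. Steps lasted from 0.8–1.5 h at the lowest concentration to 10–20 min at the highest. The apparent KD is each design's median over clusters of curve-fitted normalised fluorescence.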

[1] = Eterna round: R95, input ligand: microRNA oligo, concentration not stated
[2] = Eterna round: R95, input ligand: FMN 200 uM
[3] = Eterna round: R95, input ligand: none
[4] = input ligand: microRNA oligo, concentration not stated

Sequence | apparent KD of MS2 coat protein [1] | apparent KD of MS2 coat protein [2] | apparent KD of MS2 coat protein [3] | apparent KD of MS2 coat protein (input ligand: FMN 200 uM) | apparent KD of MS2 coat protein (input ligand: none) | apparent KD of MS2 coat protein [4]
AAUAAGCUAGGAUAUACAUGAGGAUCACCCAUGUGAGGGCACCGCCGGCGCGGGCCCGGUAGAAGGAGCAAUAA [Exc;s3-IV] (puzzle: Exclusion 3) | 16.1 nM |  |  |  |  | 
AAUAAGUGAGGAUAUACUAAAAUAUGAAUAAAAUAAAUAAAACAUGAGGAUCACCCAUGUAGAAGGCACAAUAA [JMF's Not so obvious solution 5] (puzzle: Exclusion 2) | 23.9 nM | 22.6 nM | 22.2 nM |  |  | 
AAUAAUAAGGAGGAUAUCGUAACCGAAAGGUUACGAGAAGGCCUAACAUGAGGAUCACCCAUGUUCCUCAAUAA [Mat - Exclusion 6 - Eli Mod - D56] (puzzle: Exclusion 6) | 186 nM | 468 nM | 389 nM |  |  | 
AAUAAUAAGGAGGAUAUCGUAUCGGAAACGAUACGAGAAGGUCUAACAUGAGGAUCACCCAUGUUCCUCAAUAA [Fiskers Ex 6 - 1] (puzzle: Exclusion 6) | 33.6 nM |  |  |  |  | 
AAUAAUGCAGGAUAUACAUGAGGAUCACCCAUGUGAAUAAAAUAAAUAAAAUGAUAAAGUAGAAGGGCAAAUAA [JMF's solution 1] (puzzle: Exclusion 3) | 28.8 nM | 28 nM | 35.5 nM |  |  | 
AAUAGGACAGGAUAUCCGGAGUCGAACAUGAGGAUCACCCAUGUGAUGAGGAUGUUCGCUGGAGAAGGGUCUGGCU [Atisdiis] (puzzle: Exclusion 5) | 124 nM | 83.9 nM | 176 nM |  |  | 
AAUCCUGAAGUUAGGAUAUGAAGUAUCACUACACUUUAGAAGGAACUUGAGGAUCACCCAAGUAGCCGUGAGGC [jl-bmx4.4.65 ViennaUCT mod] (Eterna round: R97, puzzle: Brourd's mod of Exclusion 4) |  |  |  | 68 nM | 22.4 nM | 
AAUGAUUCAGGAUAUACAUGAGGAUCACCCAUGUUGGUGUCCCUCCCAAAGUUGCAGUGUAGAAGGGAGUCCCG [Tigezaonbi] (puzzle: Exclusion 3) | 132 nM |  |  |  |  | 
AAUUAAACAAGCAGAUCCCACAUGAGGAUCACCCAUGUGCUCGUCUUAUAAGGUACUGUGACGAGAGUCACGGUACC [Mat - Sensor, turn-off var - Eli Mod - D64] (Eterna round: R97, puzzle: Sensor, turn-off variant 1) |  |  |  | 66.4 nM | 47.4 nM | 
AAUUAAUAUCAGGAUAUGACGUGCCUCGGCACGUCAGAAGGGAUGACAUGAGGAUCACCCAUGUGAUCAAUUAA [E6/1-A2] (Eterna round: R97, puzzle: Exclusion 6) |  |  |  | 153 nM | 28.7 nM | 
AAUUAAUAUCAGGAUAUGACGUGCUGCGGCACGUCAGAAGGGAUGACAUGAGGAUCACCCAUGUGAUCAAUUAA [E6/1-A3] (Eterna round: R97, puzzle: Exclusion 6) |  |  |  | 114 nM | 22.1 nM | 
AAUUAGUAUGUGAGGAUAUUGAUGUAAUGACGGUUUAAGAAGGCACAUGAGGAUCACCCAUGUAAAUGAUCACG [JR_BMEx4_Sub008] (Eterna round: R97, puzzle: Brourd's mod of Exclusion 4) |  |  |  | 74.4 nM | 37.7 nM | 
AAUUAUUAUUGAGGAUAUCGUAUUGAAACAAUAUGAGAAGGCGGGAUAAACAUGAGGAUCACCCAUGUGAGCCUGAUGCUUGUG [Ex NG1 #40] (Eterna round: R96, puzzle: Exclusion NG 1) |  |  |  |  |  | 15.3 nM
AAUUUACAUGAGGAUCACCCAUGUGAGGAUAUAUGCAAAGAAGUGUUAGUAAGAAAGCAUAGAAGGCGCGUGAU [JR_Exc1_Sub041] (Eterna round: R97, puzzle: Exclusion 1) |  |  |  | 64.6 nM | 47.8 nM | 
AAUUUCGCGGCCCGAUGACUGCGUACUGACAGUGAGCUCACAUGAGGAUCACCCAUGUUUUUUGCUCGUAAAUCAGA [Quarat] (Eterna round: R96, puzzle: Sensor v2, turn-off variant 2) |  |  |  | 13.6 nM | 16.1 nM | 12.3 nM
AAUUUUUAUGUAAGGAUAUAAGUUUGGAAACGGGCUUAGAAGGUACAUGAGGAUCACCCAUGUAUAAUGUGCGU [-20.6, -20.4 kcal, 32% A] (Eterna round: R97, puzzle: Brourd's mod of Exclusion 4) |  |  |  | 52 nM | 23.2 nM | 
ACAAGCUCUUUGCAACUUAGUUUUGUUGCUUCGUAGGUAACAUGAGGAUCACCCAUGUAAGACUGAUGUCGUCUUAU [JR_SV3TOV2_Sub086] (Eterna round: R96, puzzle: Sensor v3, turn-off variant 2) |  |  |  | 36.8 nM | 38.2 nM | 20.6 nM
ACAAGCUCUUUGCAACUUAGUUUUGUUGCUUCGUAGGUAACAUGAGGAUCACCCAUGUAAGACUGAUGUCGUCUUAU [JR_SV3TOV2_Sub086] (puzzle: Sensor v3, turn-off variant 2) | 21.4 nM | 33.1 nM | 36.8 nM |  |  | 
ACAAGCUUAAUCUGUAUGAACAUGAGGAUCACCCAUGUAUAAGGGAAUUCUUUUGGGUUUUUUAUAGCUCGUCUUAU [JR_STOV1_Sub020] (Eterna round: R97, puzzle: Sensor, turn-off variant 1) |  |  |  | 280 nM | 337 nM | 
ACAAGCUUAUUGCUCGGGUACAUGAGGAUCACCCAUGUUAGUGAUUAUAGAGAAUGUGUUGACGUGCGCUGCAGGUU [JR_SV3TOV1_Sub079] (puzzle: Sensor v3, turn-off variant 1) | 46 nM | 75.5 nM | 92.2 nM |  |  | 
ACAAGCUUUACGAUCCUCAACAUGAGGAUCACCCAUGUGCUCGUAUUGUUUAGUACUAUCACGAAAGUGAUAGUACA [Sensor, turn off variant 1 v.6] (Eterna round: R97, puzzle: Sensor, turn-off variant 1) |  |  |  | 1430 nM | 943 nM | 
ACAAGCUUUUAGAUUCUUAACAUGAGGAUCACCCAUGUGCUCGUCUUACCGGCCGGCGGGCCGCCGGCCGGGCUUGU (Eterna round: R97, puzzle: Sensor, turn-off variant 1) |  |  |  | 18.5 nM | 18.5 nM | 
ACAAGCUUUUAGAUUUUCAACAUGAGGAUCACCCAUGUUCGUCUUAUGCUAGUGCGAGUGCGGUGUACUCGUAUUAG [JL TOV1 3.81 sellena mod] (Eterna round: R97, puzzle: Sensor, turn-off variant 1) |  |  |  | 18.2 nM | 16.8 nM | 
ACAAGCUUUUUCAUAUCUAACAUGAGGAUCACCCAUGUUUAAGCAAUUAUGUUUGGGCUCUUUUGAGCUCGUCUUAU [JR_STOV1_Sub047] (Eterna round: R97, puzzle: Sensor, turn-off variant 1) |  |  |  | 13.8 nM | 12.3 nM | 
ACAAGCUUUUUCGUGGGUGACAUGAGGAUCACCCAUGUUUGCCGCGUCUUGUCGUCGUGGACCUGUGGUCCAUGACG [Small mod of -44.6, -64.9 by Sellena] (Eterna round: R97, puzzle: Sensor, turn-off variant 1) |  |  |  | 137 nM | 153 nM | 
